Reference: US20030175822A1
pIC50: −log10 of the molar value.

What was measured:
[1] = target: mu3 opiate receptor (human) (UniProt P35372); assay: displacement of [3H]-dihydromorphine, membrane suspension of normal human lung
[2] = target: mu3 opiate receptor (human) (UniProt P35372); assay: displacement of [3H]-dihydromorphine, membrane suspension of human lung non-small cell carcinoma
[3] = target: mu3 opiate receptor (human) (UniProt P35372); assay: displacement of [3H]-dihydromorphine, membrane suspension of human granulocytes

Measured: pIC50

mu3 opiate receptor (human), sequence (P35372 whole entry): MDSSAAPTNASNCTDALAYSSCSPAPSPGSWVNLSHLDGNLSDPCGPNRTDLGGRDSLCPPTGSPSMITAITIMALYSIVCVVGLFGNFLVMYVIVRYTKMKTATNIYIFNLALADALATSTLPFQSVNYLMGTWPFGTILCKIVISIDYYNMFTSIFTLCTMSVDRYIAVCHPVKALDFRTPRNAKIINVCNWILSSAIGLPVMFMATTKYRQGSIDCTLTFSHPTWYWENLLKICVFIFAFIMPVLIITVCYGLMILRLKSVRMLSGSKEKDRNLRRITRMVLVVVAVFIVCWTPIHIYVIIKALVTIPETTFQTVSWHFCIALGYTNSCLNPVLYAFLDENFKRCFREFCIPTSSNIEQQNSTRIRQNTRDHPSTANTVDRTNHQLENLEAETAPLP

(D-Ala^2, Leu^5)-enkephalin (from UniProt P01210 230-234) (peptide)
< 6.00: all assays above

(D-Pen^2, D-Pen^5)-enkephalin (peptide)
< 6.00: all assays above

Deltorphin (peptide)
< 6.00: all assays above

Dynorphin 1-17 (from UniProt P01213 207-223) (peptide)
< 6.00: all assays above
